Measurements taken from patent EP4810611A2.
Substitutions are numbered along the chain they refer to.

Columns and labels:
TRBV9+TRAV38 antigen [1] = test: BLI (OctetRed 96), antigen on AR2G sensors, antibody 126-2 nM, 1:1 model; run 2
TRBV9+TRAV26 antigen [2] = test: as above
TRBV9+TRAV38 antigen [3] = test: BLI (OctetRed 96), antigen on AR2G sensors, antibody 126-2 nM, 1:1 model; run 1
TRBV9+TRAV26 antigen [4] = test: as above
TRBV9+TRAV38 antigen [5] = test: BLI (OctetRed 96), antigen on AR2G sensors, antibody 126-2 nM, 1:1 model; run 3
TRBV9+TRAV26 antigen [6] = test: as above
[7] = molecular target: human T cell receptor with a beta-chain of the TRBV9 family, on T lymphocytes of the mononuclear fraction of human blood (human); test: flow cytometry, FITC-labelled antibody on human blood mononuclear cells, 5 and 0.5 ng/µl
Chain of human T cell receptor with a beta-chain of the TRBV9 family, on T lymphocytes of the mononuclear fraction of human blood (human) (A0A0B4J1U6 22-114): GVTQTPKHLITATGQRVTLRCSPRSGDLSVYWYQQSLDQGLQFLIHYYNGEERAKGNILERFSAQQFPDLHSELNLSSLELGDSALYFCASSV

B1: anti-TRBV9-1 monoclonal antibody (antibody, human IgG1, kappa, V domains shown)
VH: QIQLVQSGPELREPGESVKLSCKASGYTFTDYLVHWVKQAPGKGLKWMGWINTYTGTPTYADDFEGRFVFSLEASASTANLQISNLKNEDTATYFCARSWRRGLRGLGFDYWGQGVFVTVSS
VL: DVQMTQSPYNLAASPGESVSINCKASKSINKYLAWYQQKPGKPNKLLIYDGSTLQSGIPSRFSGSGSGTDFTLTIRGLEPEDFGLYYCQQHNEYPPTFGAGTKLELKR
Kd (TRBV9+TRAV38 antigen [1]): 0.365 nM | koff (TRBV9+TRAV38 antigen [1]): 0.000205 s⁻¹ | kon (TRBV9+TRAV38 antigen [1]): 562000 M⁻¹ s⁻¹ | Kd (TRBV9+TRAV26 antigen [2]): 0.278 nM | koff (TRBV9+TRAV26 antigen [2]): 0.000183 s⁻¹ | kon (TRBV9+TRAV26 antigen [2]): 658000 M⁻¹ s⁻¹ | Kd (TRBV9+TRAV38 antigen [3]): 0.414 nM | koff (TRBV9+TRAV38 antigen [3]): 0.000183 s⁻¹ | kon (TRBV9+TRAV38 antigen [3]): 441000 M⁻¹ s⁻¹ | Kd (TRBV9+TRAV26 antigen [4]): 0.22 nM | koff (TRBV9+TRAV26 antigen [4]): 0.000113 s⁻¹ | kon (TRBV9+TRAV26 antigen [4]): 515000 M⁻¹ s⁻¹ | Kd (TRBV9+TRAV38 antigen [5]): 0.529 nM | koff (TRBV9+TRAV38 antigen [5]): 0.000196 s⁻¹ | kon (TRBV9+TRAV38 antigen [5]): 371000 M⁻¹ s⁻¹ | Kd (TRBV9+TRAV26 antigen [6]): 0.204 nM | koff (TRBV9+TRAV26 antigen [6]): 0.000114 s⁻¹ | kon (TRBV9+TRAV26 antigen [6]): 559000 M⁻¹ s⁻¹

B2: anti-TRBV9-2 monoclonal antibody (antibody, human IgG1, kappa, V domains shown)
VH: B1 VH with L107I
VL: B1 VL
Kd (TRBV9+TRAV38 antigen [1]): < 0.001 nM | koff (TRBV9+TRAV38 antigen [1]): < 1e-07 s⁻¹ | kon (TRBV9+TRAV38 antigen [1]): 289000 M⁻¹ s⁻¹ | Kd (TRBV9+TRAV26 antigen [2]): < 0.001 nM | koff (TRBV9+TRAV26 antigen [2]): < 1e-07 s⁻¹ | kon (TRBV9+TRAV26 antigen [2]): 381000 M⁻¹ s⁻¹ | Kd (TRBV9+TRAV38 antigen [3]): < 0.001 nM | koff (TRBV9+TRAV38 antigen [3]): < 1e-07 s⁻¹ | kon (TRBV9+TRAV38 antigen [3]): 397000 M⁻¹ s⁻¹ | Kd (TRBV9+TRAV26 antigen [4]): 0.0135 nM | koff (TRBV9+TRAV26 antigen [4]): 6.02e-06 s⁻¹ | kon (TRBV9+TRAV26 antigen [4]): 447000 M⁻¹ s⁻¹ | staining, share of the CD3-positive fraction [7]: 2.9%

B3: anti-TRBV9-4 monoclonal antibody (antibody, human IgG1, kappa, V domains shown)
VH: B1 VH with L104I, L107I
VL: B1 VL
Kd (TRBV9+TRAV38 antigen [1]): < 0.001 nM | koff (TRBV9+TRAV38 antigen [1]): < 1e-07 s⁻¹ | kon (TRBV9+TRAV38 antigen [1]): 476000 M⁻¹ s⁻¹ | Kd (TRBV9+TRAV26 antigen [2]): < 0.001 nM | koff (TRBV9+TRAV26 antigen [2]): < 1e-07 s⁻¹ | kon (TRBV9+TRAV26 antigen [2]): 579000 M⁻¹ s⁻¹ | Kd (TRBV9+TRAV38 antigen [3]): < 0.001 nM | koff (TRBV9+TRAV38 antigen [3]): < 1e-07 s⁻¹ | kon (TRBV9+TRAV38 antigen [3]): 713000 M⁻¹ s⁻¹ | Kd (TRBV9+TRAV26 antigen [4]): < 0.001 nM | koff (TRBV9+TRAV26 antigen [4]): < 1e-07 s⁻¹ | kon (TRBV9+TRAV26 antigen [4]): 865000 M⁻¹ s⁻¹

B4: anti-TRBV9-3 monoclonal antibody (antibody, human IgG1, kappa, V domains shown)
VH: B1 VH with L104I
VL: B1 VL
Kd (TRBV9+TRAV38 antigen [1]): 0.4 nM | koff (TRBV9+TRAV38 antigen [1]): 9.16e-05 s⁻¹ | kon (TRBV9+TRAV38 antigen [1]): 229000 M⁻¹ s⁻¹ | Kd (TRBV9+TRAV26 antigen [2]): 0.582 nM | koff (TRBV9+TRAV26 antigen [2]): 9.8e-05 s⁻¹ | kon (TRBV9+TRAV26 antigen [2]): 168000 M⁻¹ s⁻¹ | Kd (TRBV9+TRAV38 antigen [3]): 0.311 nM | koff (TRBV9+TRAV38 antigen [3]): 9.61e-05 s⁻¹ | kon (TRBV9+TRAV38 antigen [3]): 309000 M⁻¹ s⁻¹ | Kd (TRBV9+TRAV26 antigen [4]): 0.319 nM | koff (TRBV9+TRAV26 antigen [4]): 9.16e-05 s⁻¹ | kon (TRBV9+TRAV26 antigen [4]): 287000 M⁻¹ s⁻¹
